US20110171285A1, “Design of Fibrinogen and Fibrinogen Derived Products with Reduced Bacterial Binding by Using Modified Sequences of Fibrinogen Chains” (priority 2009, published 2011)
Where two headings read alike, the source gives them in different places.

Experiments:
[1] = molecular target: recombinant ClfA229-545 (S. aureus clumping factor A, N2N3 domains), 6xHis tagged (Staphylococcus aureus) (UniProt Q53653)
human fibrinogen (human) = human fibrinogen (human) (UniProt P02671)
[2] = molecular target: human 15-mer C-terminal Fg γ-chain peptide (…) (human); assay: human 15-mer peptide
[3] = molecular target: human 17-mer C-terminal Fg γ-chain peptide (…) (human); assay: human 17-mer peptide
[4] = molecular target: recombinant ClfA229-545 (S. aureus clumping factor A, N2N3 domains), 6xHis tagged (Staphylococcus aureus) (UniProt Q53653); remark: listed apart in the source

recombinant ClfA229-545 (S. aureus clumping factor A, N2N3 domains), 6xHis tagged (Staphylococcus aureus), sequence (Q53653 229-545 limits assumed): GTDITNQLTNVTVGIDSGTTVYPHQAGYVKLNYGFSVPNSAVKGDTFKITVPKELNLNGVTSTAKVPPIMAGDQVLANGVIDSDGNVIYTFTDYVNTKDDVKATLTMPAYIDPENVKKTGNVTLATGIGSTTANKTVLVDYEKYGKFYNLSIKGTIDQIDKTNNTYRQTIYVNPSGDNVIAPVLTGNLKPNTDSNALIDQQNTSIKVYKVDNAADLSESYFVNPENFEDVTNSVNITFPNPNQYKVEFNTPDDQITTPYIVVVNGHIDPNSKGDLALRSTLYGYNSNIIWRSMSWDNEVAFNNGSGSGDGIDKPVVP
human fibrinogen (human), sequence (P02671 20-629 limits assumed, chain 1 of 3): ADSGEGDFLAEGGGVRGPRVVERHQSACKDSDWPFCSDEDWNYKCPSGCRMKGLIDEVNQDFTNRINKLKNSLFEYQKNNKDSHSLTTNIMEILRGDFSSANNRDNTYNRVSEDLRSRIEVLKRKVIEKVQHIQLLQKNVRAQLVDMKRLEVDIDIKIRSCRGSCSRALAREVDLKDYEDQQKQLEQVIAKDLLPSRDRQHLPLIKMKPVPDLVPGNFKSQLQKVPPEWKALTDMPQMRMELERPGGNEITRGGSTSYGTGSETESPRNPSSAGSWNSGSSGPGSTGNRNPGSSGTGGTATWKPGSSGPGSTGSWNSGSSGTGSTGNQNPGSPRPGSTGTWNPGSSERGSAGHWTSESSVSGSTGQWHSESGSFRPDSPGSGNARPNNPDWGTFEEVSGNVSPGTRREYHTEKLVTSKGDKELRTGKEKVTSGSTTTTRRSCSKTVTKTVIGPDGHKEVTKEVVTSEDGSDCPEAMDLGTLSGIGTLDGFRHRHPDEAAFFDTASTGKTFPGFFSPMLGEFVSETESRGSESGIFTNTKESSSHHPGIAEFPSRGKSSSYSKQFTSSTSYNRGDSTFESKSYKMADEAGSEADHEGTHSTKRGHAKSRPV
human fibrinogen (human), sequence (P02675 31-491 limits assumed, chain 2 of 3, further chain): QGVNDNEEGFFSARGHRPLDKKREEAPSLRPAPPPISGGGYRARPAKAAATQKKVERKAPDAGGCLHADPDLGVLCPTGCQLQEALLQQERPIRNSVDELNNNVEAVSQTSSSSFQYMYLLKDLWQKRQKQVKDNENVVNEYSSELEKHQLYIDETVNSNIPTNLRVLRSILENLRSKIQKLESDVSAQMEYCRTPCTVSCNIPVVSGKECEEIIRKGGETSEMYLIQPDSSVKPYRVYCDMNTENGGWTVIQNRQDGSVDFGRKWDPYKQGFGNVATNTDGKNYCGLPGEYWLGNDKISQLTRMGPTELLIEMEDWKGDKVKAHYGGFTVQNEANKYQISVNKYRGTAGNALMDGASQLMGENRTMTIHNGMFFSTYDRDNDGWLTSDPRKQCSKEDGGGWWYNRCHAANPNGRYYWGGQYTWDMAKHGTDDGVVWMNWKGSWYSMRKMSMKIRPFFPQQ
human fibrinogen (human), sequence (P02679 other isoform, or with tags, fused parts or gaps limits assumed, chain 3 of 3, further chain): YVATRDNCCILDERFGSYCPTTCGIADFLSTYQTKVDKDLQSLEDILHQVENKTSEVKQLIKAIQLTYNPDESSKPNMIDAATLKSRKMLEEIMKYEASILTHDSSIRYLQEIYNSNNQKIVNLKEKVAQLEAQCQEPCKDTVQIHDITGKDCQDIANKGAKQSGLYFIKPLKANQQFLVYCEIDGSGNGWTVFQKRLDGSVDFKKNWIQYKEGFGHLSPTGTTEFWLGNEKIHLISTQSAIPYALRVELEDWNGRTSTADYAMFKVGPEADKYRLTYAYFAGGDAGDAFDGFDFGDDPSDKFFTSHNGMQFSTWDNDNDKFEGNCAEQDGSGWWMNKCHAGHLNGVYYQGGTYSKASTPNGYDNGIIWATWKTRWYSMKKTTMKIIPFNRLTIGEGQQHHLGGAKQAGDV

Work on “sheep (ovine) 15-mer C-terminal Fg γ-chain peptide (…)” yielded an N [1] of 16.2, a ΔH [1] of 1340 and a ΔS [1] of 20.4.
In the case of “recombinant ClfA229-545 (S. aureus clumping factor A, N2N3 domains), 6xHis tagged (from UniProt Q53653 229-545)”, the EC50 (read off the curve) (human fibrinogen (human)) is reported as 0.2 µM, the Kd [2] is reported as 40 µM and the Kd [3] is reported as 23 µM.
Substance “human 15-mer C-terminal Fg γ-chain peptide (…)” has an N [4] of 1.29, a ΔH [4] of -3640 and a ΔS [4] of 8.03.
